Values quoted from earlier work, collected in publication PMC4887106.

Target: Histone H4K20me1/2 (Homo sapiens) (UniProt P62805)

MBTD1 4xMBT (from UniProt Q05BQ5)
Kd: 10 µM
